Data reported in paper PMC8533776.

Molecular target: enhanced green fluorescent protein (EGFP) [GFP: P42212]
Assay: ELISA; EGFP coated at 100 ng/well in PBS overnight at 4 °C, blocked with 3% BSA; threefold serial dilutions of the binders, 37 °C for 1.5 h; detection by HRP-conjugated anti-Flag antibody, ABTS, OD405

Substance: αEGFP TRIMbody (RBCC-LaG16-LaG2)
- EC50: 0.63 nM
